Test results published in paper doi:10.1101/2025.11.06.687086 (bioRxiv, 2025).

Key:
[1] = target: T1, A/Taiwan/01/1986 (H1N1) HA (Influenza A virus A/Taiwan/1/1986 (H1N1), UniProt F5CU03, strain); assay: ELISA; details: one partner purified
T1 construct: source: bought: Sino Biological

[2] = target: A/California/07/2009 (H1N1) HA (Influenza A virus A/California/07/2009 …, UniProt C3W5X2, strain); assay: ELISA; details: one partner purified
[3] = target: T2, A/Japan/305/1957 (H2N2) HA (Influenza A virus A/Japan/305/1957 …, UniProt P03451, strain); assay: ELISA; details: one partner purified
T2 construct: source: Sf9, baculovirus, purified from the supernatant (Ni Sepharose excel, SEC)

[4] = target: T3, A/Solomon Islands/3/2006 (H1N1) HA (Influenza A virus A/Solomon …, strain); assay: ELISA; details: one partner purified
[5] = target: T4, A/Michigan/45/2015 (H1N1) HA (Influenza A virus A/Michigan/45/2015 …, UniProt A0A1J0CXU0, strain); assay: ELISA; details: one partner purified
[6] = target: A/northern pintail/WA/40964/2014 (H5N8) HA (influenza A virus A/northern …, UniProt A0A0C4WPH5, strain); assay: ELISA; details: one partner purified
[7] = target: A/Beijing/262/1995 (H1N1) HA (Influenza A virus A/Beijing/262/1995 …, UniProt B4UPF7, strain); assay: ELISA; details: one partner purified
[8] = target: T5, A/USSR/90/1977 (H1N1) HA (Influenza A virus A/USSR/90/1977 (H1N1), UniProt P03453, strain); assay: ELISA; details: one partner purified
T5 construct: source: bought: Sino Biological

[9] = target: T3, A/Solomon Islands/3/2006 (H1N1) HA; assay: cryo-EM structure; details: both partners purified
[10] = target: T4, A/Michigan/45/2015 (H1N1) HA; assay: BLI; details: both partners purified

Measured: binding result

B1: HB31 IgG (antibody, V domains shown)
VH: EVQLLESGGGLVQPGGSLRLSCTVSGFTSSNYDMSWVRQAPGKGLEWVSGISGTGRDTYYADSVKGRFTISRDNSKNTLSLQMNSLRADDTAVYFCARDRPVLRYFDWQPYGLDVWGKGTTVTVSS
VL: QSALTQPPSASGSPGQSVTISCTGTSSDVGGYNYVSWYQQYPSKAPKLMIYEVSKRPSGVPDRFSGSKSGNTASLTVSGLQAEDEADYYCNSYAGSNLYVFGTGTKVTVL
not listed: [9] | [10]
binds: all other assays above

B2: HB34 IgG (antibody, V domains shown)
VH: EVQLLESGGGLVQPGGSLRLSCTVSGFTSSNYDMSWVRQAPGKGLEWVSGISGTGRDTYYADSVKGRFTISRDNSKNTLSLQMNSLRADDTAVYFCARDRPVLRYFDWQPYGLDVWGKGTTVTVSS
VL: QSALTQPASVSGSPGQSITISCTGTSSDVGSYNLVSWYQQHPGKAPKLMIYEGSQRPSGVSNRFSGSKSGNTASLTISGLQAEDEADYYCCSYASSTSYVFGTGTKVTVL
not listed: [9] | [10]
binds: all other assays above

B3: HB31 Fab (Fab, V domains shown)
VH: EVQLLESGGGLVQPGGSLRLSCTVSGFTSSNYDMSWVRQAPGKGLEWVSGISGTGRDTYYADSVKGRFTISRDNSKNTLSLQMNSLRADDTAVYFCARDRPVLRYFDWQPYGLDVWGKGTTVTVSS
VL: QSALTQPPSASGSPGQSVTISCTGTSSDVGGYNYVSWYQQYPSKAPKLMIYEVSKRPSGVPDRFSGSKSGNTASLTVSGLQAEDEADYYCNSYAGSNLYVFGTGTKVTVL
binds: [9] | [10]

B4: HB34 Fab (Fab, V domains shown)
VH: EVQLLESGGGLVQPGGSLRLSCTVSGFTSSNYDMSWVRQAPGKGLEWVSGISGTGRDTYYADSVKGRFTISRDNSKNTLSLQMNSLRADDTAVYFCARDRPVLRYFDWQPYGLDVWGKGTTVTVSS
VL: QSALTQPASVSGSPGQSITISCTGTSSDVGSYNLVSWYQQHPGKAPKLMIYEGSQRPSGVSNRFSGSKSGNTASLTISGLQAEDEADYYCCSYASSTSYVFGTGTKVTVL
binds: [9] | [10]

B5: FISW84 Fab (Fab, V domains shown)
VH: EVQLLESGGGLVQPGGSLRLSCAASGFTFSSYGMAWVRQAPGKGLEWVSFISATGLSTYFADSVKGRFTISRDTTKNTLYLQMNSLRADDTAVYFCARMRRTMIAFGGNDFWGQGTLVTVSS
VL: EVVMTQSPATLSVSPGEGATLSCRASQSVNTNVAWYQQKPGQAPRLLIYGASTRATGIPARFSGSGSGTEFTLTISTLQSEDFAVYYCQQYSNWPPITFGQGTRLEIK
notes: also called anchor Fab FISW84
binds: [10]

B6: HB315 IgG (antibody, V domains shown)
VH: EVQLLESGGGLAQPGGSLRLSCTASGFTFSNFAMNWVRQAPGKGLEWVSFINSGSGSTYYADSVKGRFTISRDNSENTLFLQMNSLRAEDTAVYYCAKDLGRAIFGLVIPEGAFDIWGQGTMVTVSS
VL: EIVMTQSPSSLSASVGDRVTITCRASQSINNHLNWYQQKPGKAPKLLIYAASSLQSGVPSRFSGSGSGTDFTLTISSLQPADFATYHCQQSYGVPLTFGQGTKVEIK
not listed: [9] | [10]
binds: all other assays above

B7: HB315 Fab (Fab, V domains shown)
VH: EVQLLESGGGLAQPGGSLRLSCTASGFTFSNFAMNWVRQAPGKGLEWVSFINSGSGSTYYADSVKGRFTISRDNSENTLFLQMNSLRAEDTAVYYCAKDLGRAIFGLVIPEGAFDIWGQGTMVTVSS
VL: EIVMTQSPSSLSASVGDRVTITCRASQSINNHLNWYQQKPGKAPKLLIYAASSLQSGVPSRFSGSGSGTDFTLTISSLQPADFATYHCQQSYGVPLTFGQGTKVEIK
binds: [9] | [10]

B8: CR9114 Fab (Fab, V domains shown)
VH: QVQLVQSGAEVKKPGSSVKVSCKSSGGTSNNYAISWVRQAPGQGLDWMGGISPIFGSTAYAQKFQGRVTISADIFSNTAYMELNSLTSEDTAVYFCARHGNYYYYSGMDVWGQGTTVTVSS
VL: QSALTQPPAVSGTPGQRVTISCSGSDSNIGRRSVNWYQQFPGTAPKLLIYSNDQRPSVVPDRFSGSKSGTSASLAISGLQSEDEAEYYCAAWDDSLKGAVFGGGTQLTVL
binds: [10]
